From article doi:10.1101/2025.05.09.653011 (bioRxiv, 2025)

Tests used:
[1] = target: Human wild-type peptidylprolyl cis-trans isomerase A (PPIA) (human, UniProt P62937 2-165); test: NMR titration
[2] = target: Human PPIA K76E mutant (human, UniProt P62937 2-165, K76E); test: NMR titration
Sequence of Human PPIA K76E mutant (P62937 2-165 K76E): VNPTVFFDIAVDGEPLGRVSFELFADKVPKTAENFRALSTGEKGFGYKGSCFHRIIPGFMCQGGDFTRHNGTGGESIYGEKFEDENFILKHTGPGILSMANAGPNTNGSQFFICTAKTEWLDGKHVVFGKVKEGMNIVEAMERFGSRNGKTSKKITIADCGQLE

Sequence of Human wild-type peptidylprolyl cis-trans isomerase A (PPIA) (P62937 2-165): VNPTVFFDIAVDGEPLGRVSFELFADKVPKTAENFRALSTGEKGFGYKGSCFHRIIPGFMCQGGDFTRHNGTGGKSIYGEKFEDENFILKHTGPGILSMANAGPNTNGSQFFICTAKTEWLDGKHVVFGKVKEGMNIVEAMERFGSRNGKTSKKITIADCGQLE

Ac-FGPDLPAGD-NH2 [Ac-FGPDLPAGD-NH2]
binding result [1]: binds | binding result [2]: binds
